Source: the supplement of paper PMC7125110
± gives the standard error. This sample holds only a part of the variants without activity.

B1: glmS ribozyme (parent)
chain: AUAAAAGCGCCAGAACUACAGAAAUGUAGUUGACGAGGAGGAGGUUUAUCGAAUUUUCGGCGGAUGCCUCCAAA

What was measured:
Details in all cases: with glucosamine-6-phosphate
glucosamine-6-phosphate [1] = variants of: B1; experiment: self-cleavage kobs at 160 uM GlcN6P; higher = faster cleavage; RNA array
Method in brief: (§1)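 A hybridised Cy3 probe tracked barcoded ribozyme variants, transcribed in situ by E. coli RNA polymerase on sequenced MiSeq chips, at 37 °C. The variants received 40 μM to 10 mM glucosamine-6-phosphate in HEPES/KCl/Mg(OAc)2 buffer. kobs came from decay fits and kcat and KM from weighted Michaelis–Menten fits.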

glucosamine-6-phosphate [2] = variants of: B1; experiment: self-cleavage kobs at 640 uM GlcN6P; higher = faster cleavage; RNA array
Method in brief: as §1

glucosamine-6-phosphate [3] = variants of: B1; experiment: self-cleavage kobs at 2500 uM GlcN6P; higher = faster cleavage; RNA array
Method in brief: as §1

glucosamine-6-phosphate [4] = variants of: B1; experiment: self-cleavage kobs at 10000 uM GlcN6P; higher = faster cleavage; RNA array
Method in brief: as §1

Variant	self-cleavage kobs at 160 uM GlcN6P (glucosamine-6-phosphate [1]) [s⁻¹]	self-cleavage kobs at 640 uM GlcN6P (glucosamine-6-phosphate [2]) [s⁻¹]	self-cleavage kobs at 2500 uM GlcN6P (glucosamine-6-phosphate [3]) [s⁻¹]	self-cleavage kobs at 10000 uM GlcN6P (glucosamine-6-phosphate [4]) [s⁻¹]
AUAAAAGCGCCACCACUACAGAAAUGUAGUUGACGAGGAGGAGGUUUAUCGAAUGUUCUGCGGAUGCCUCCAAA	< 1e-05	< 1e-05		
AUAAAAGCGCCAUCACUACAGAAAUGUAGUUAACGAGGAGGAGGUCUAUCGAAUUUUCGGCGAAUGCUGCUAAA	< 1e-05	< 1e-05		
AUAAAAGCGCCAAAACUACAGAAAUGUAGUUGACGAGGAGGACGUUUAUCGAAUUUUCGGCGGAUACCUCCAAA	< 1e-05		< 1e-05	< 1e-05
AUAAAAGCGCCACCACUACAGAAAUGUAGUUGACGAGGAGGAGGUUUAUCAAAUUUUCGGCGGAUUCCUCCAAA	< 1e-05		< 1e-05	
AUAAAAGCGCCAUUACUACAGAAAUGUAGUUGACGAGGAGGAGGUUUAUCGAAUUUCCGGCGGAUGCCUCCAAA	< 1e-05		< 1e-05	
AUAAAAGCGCCAUAGCUACAGAAAUGUAGUUGACCAGGAGGAGGUUUAUCGUAUUUUCGGCGGAUGCCUCCAAA	< 1e-05	< 1e-05	< 1e-05	
AUAAAAGCGCCACAACUACAGAAAUGUAGUUGAAUAGGAGGAGGUUUAUCGAAUUUUCGGCGGAUGCCUCCAAA	< 1e-05	< 1e-05	< 1e-05	
AUAAAAGCGCCACAACUACAGAAAUGUAGUUGACGGGGAGGAGGUUUAUCGAAUUUUCGGCGCAUGCCUCCAAA	< 1e-05	< 1e-05		
AUAAAAGCGCCAAAACUACAGAAAUGUAGUUGACGAGGAGGAGGUGUGUCGAAUUUUCAGCGGAUGCCUCCAAA	< 1e-05		< 1e-05	< 1e-05
AUAAAAGCGCCAAAACUACAGAAAUGUAGAAGACGAGGAGGCGGUGUAUCGAAUUUUCGGCGGAUGCCUCCAAA	< 1e-05		< 1e-05	
AUAAAAGCGCCACUACUACAGAAAUGUAGUUAACGAGGAGGAGGUUUAUCGAAUUUUCGGCGGAUGCCUCCAAA	0.000741 ± 0.00017		0.00667 ± 0.0017	
AUAAAAGCGCCAAAACUACAGAAAUGUAGUUGACGAGGAGGAGGCUUAUUGAAUUUUCGGCGGAUGCCUCGAAA	< 1e-05	< 1e-05	< 1e-05	
AUAAAAGCGCCAUAACUACAGAAAUGUAGUUGACGAGGAGGCGGUUUAUCGAAAGUUCGGCGGAUGCCUCCAAA	< 1e-05	< 1e-05	< 1e-05	
AUAAAAGCGCCACAACUACAGAAAUGUAGUUGAUGAGGAGGAGGUUUAUCGAAUUUUCGGCGGAUGCCUCCAAA	< 1e-05	< 1e-05	< 1e-05	< 1e-05
AUAAAAGCGCCACAUCUACAGAAAUGUAGUUGACGAGGAGGAGGUUUAUCUAAUUUUCGGCGGAUGUGUCCAAA	6.58e-05 ± 2.5e-05			
AUAAAAGCGCCACAACUACAGAAAUGUAUUUGACGACGAGGAGGUUUAUCGAAUUUUCGGCGGAUGCCUCUAAA	< 1e-05			
